Substrate in this data set: C[C@H](NC(=O)CCC(=O)O)C(=O)N[C@@H](C)C(=O)N1CCC[C@H]1C(=O)N[C@@H](Cc1ccccc1)C(=O)Nc1ccc([N+](=O)[O-])cc1
Nature of the data set: purified protein, by the assay type. It counts as biochemical, Toxoplasma gondii. Particulars: other: substrate AAPF, 0 °C, pH 8.0.

Among the data in PMC9926490, “Structural Basis for Cyclosporin Isoform-Specific Inhibition of Cyclophilins from Toxoplasma gondii” (ACS Infectious Diseases, 2023) are Km, kcat and kcat/Km values, retold here.

As usually defined, the Km is the substrate concentration at which the rate is half of its maximum. As a reminder, the kcat is the maximal rate divided by the concentration of active sites. Broadly, the kcat/Km is the turnover number divided by the Michaelis constant.

Procedure: A trans-isomer is formed by Cyp, which is selectively cleaved by chymotrypsin, producing 4-nitroaniline, a yellow-colored product that can be measured spectrophotometrically.
The assay was performed in 50 mM Hepes, pH 8, and 100 mM NaCl at 0 °C. […] Once the temperature reached 0 °C, chymotrypsin solution, dissolved in HCl 1 mM, was added at 1.8 mg mL^–1 to start the reaction.
Successively, Cyp was added in large excess to enhance the cis-to-trans isomerization. The cis population was estimated by the difference between the final and the initial absorbance.
For all of the experiments, the slope of the catalyzed reaction was corrected for the spontaneous thermal cis–trans isomerization in the presence of the only chymotrypsin.
All measurements were repeated as triplicate, and the error was calculated as the mean standard error of the three measurements. The error associated with the parameter kcat/Km was propagated in agreement with the following equation eq 1 [drawing 1]

B1: TgCyp18.4 (Toxoplasma gondii VEG) (protein)
chain: MSVTIKTNLGDLKAELYCQQAPKTCKNFLALCASDYYNGTRFHRNIKGFAIQGGDPTGTGKGGESIYGGLFEDEFVSSLKHDRRGILSMANQGKPNTNGSQFFITYCRQPHLNGVYSVFGRLIDGMDTLDKMEREPVGRKNRPENDIIIEQVIIHANPIAEMDQL
Regarding B1, the Km was 286 ± 39 µM, the turnover number (kcat) is 2.8 ± 0.4 s⁻¹ and the kcat/Km is 10000 ± 2000 M⁻¹ s⁻¹.
